Drawing on patent publication US20110028686A1, “Protein binding miniature proteins” (Yale University, priority 2000, published 2011), this text covers fold less stable than the wild type GST-KIX complex, ΔΔG relative to wild type PPKID4^P and Kd for four molecules.

Square brackets hold non-standard residues; d marks the D form. Primed or numbered codes have the meaning given here. Ends that are not written are not given here. acetamidofluorescein″ = acetamidofluorescein (5-iodoacetamidofluorescein attached to the C-terminal Cys); pS = N[C@@H](COP(=O)(O)O)C(=O)O; Sar = CNCC(=O)O

In one experiment the target is GST-KIXY650A (UniProt P45481). Briefly: FP, 25 nM fluorescein-labelled peptide titrated with GST-KIXY650A, 25 C.
Substrate in the experiment “FP with CBP KIX”: CBP KIX, wild type (Example 20) (UniProt P45481)
Briefly: FP with CBP KIX.

Substrate in experiment [1]: CBP KIX, wild type (Example 20) (UniProt P45481)
Briefly: FP, fluorescein-labelled PPKID4^P variant titrated with CBP KIX.

CBP KIX, wild type (Example 20), sequence (P45481 586-665 limits assumed): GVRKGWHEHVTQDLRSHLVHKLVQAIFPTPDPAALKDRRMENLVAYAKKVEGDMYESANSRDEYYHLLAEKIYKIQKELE
GST-KIXY650A, sequence (P45481 586-665 Y650A): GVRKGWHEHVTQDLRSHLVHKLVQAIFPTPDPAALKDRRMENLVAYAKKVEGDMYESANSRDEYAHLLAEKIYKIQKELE

B1: KID-AB^P (peptide)
peptide: TDSQKRREILSRRP[pS]YRKILNDLSSDAPGVC-NH2
modifications: also: C-terminal Cys acetamidofluorescein-labelled in direct assays, unlabelled as competitor
Consider B1, for which the fold less stable than the wild type GST-KIX complex with GST-KIXY650A stood at 15 fold.

B2: PPKID4^P P5Z (designed binder)
peptide: GPSQ[Sar]TYPGDDAPVRRL[pS]FFYILLDLYLDAPGVC(acetamidofluorescein″)-NH2
Consider B2, for which the ΔΔG relative to wild type PPKID4^P in “FP with CBP KIX” came out at 0.16 kcal/mol. The Kd (in general, the equilibrium constant for the complex coming apart) in experiment [1] came out at 800 nM.

B3: PPKID4^P P2Z (designed binder)
peptide: G[Sar]SQPTYPGDDAPVRRL[pS]FFYILLDLYLDAPGVC(acetamidofluorescein″)-NH2
With B3, the ΔΔG relative to wild type PPKID4^P in “FP with CBP KIX” came to 0.18 kcal/mol. Moreover, the Kd in experiment [1] is 830 nM.

B4: PPKID4^P P8Z (designed binder)
peptide: GPSQPTY[Sar]GDDAPVRRL[pS]FFYILLDLYLDAPGVC(acetamidofluorescein″)-NH2
Take B4: the ΔΔG relative to wild type PPKID4^P in the experiment “FP with CBP KIX” was determined as 0.15 kcal/mol. Moreover, the Kd in experiment [1] was 780 nM.
